Series [1] deals with T1, SARS-CoV-2 nucleocapsid N-terminal RNA-binding domain (NTD) (SARS-CoV-2, UniProt P0DTC9 46-174). Description: EMSA competition; vs 32P-probe RNA; n=4. The following applies: protein: recombinant; tags: His-tag (pET-15b). A general note: Mobility shift assays separate free from complexed probe on a gel.
Series [2] addresses SARS-CoV-2 nucleocapsid protein full length (NP) (SARS-CoV-2, UniProt P0DTC9 1-419).
For series [3], the target named is T1, SARS-CoV-2 nucleocapsid N-terminal …. Description: EMSA; 800 ng NTD, 5 ng RNA. The settings on record: protein: recombinant; tags: His-tag (pET-15b); label: 32P-CTP internal.
For series [4] the target is unchanged. Description: EMSA competition; vs 32P-probe RNA; n=7. The following applies: protein: recombinant; tags: His-tag (pET-15b).
Series [5] shares this target. Description: EMSA competition; vs 32P-probe RNA; n=3. The settings on record: protein: recombinant; tags: His-tag (pET-15b).
Series [6] has the same target. Description: EMSA competition; vs 32P-probe RNA; n=6. The settings on record: protein: recombinant; tags: His-tag (pET-15b).

Usually IC50 stands for the concentration needed to halve the response being measured.

Consider GGGGGG (ssRNA) [G6], for which the IC50 in series [1] stood at 0.62 ± 0.07 µM.

On to GGGGGGGGGGGG (ssRNA) [G12], for which the binding result in series [2] is reported as “binds”.

GGGCGAGGCCACGCGGAGUACGAUCGAGUGUACAG (ssRNA) [32P-probe RNA (T7 transcript)]: the binding result in series [3] is listed as “binds”.

With CGAGGCCACGCGGAGUACGAUCGAGUGUACAG (ssRNA) [FITC-probe RNA (32-base)], in series [2], the binding result was “binds”.

With CCGGCG (ssRNA) [In-1], the IC50 in series [4] is 34.3 ± 27.8 µM.

For AAAAAA (ssRNA) [A6], the IC50 in series [5] was 22.9 ± 16.4 µM.

As to CCAGCG (ssRNA) [mIn-1 (mIn-1-1)], the IC50 in series [6] was 3.48 ± 1.46 µM.
